From PMC1919486

Target: T1, hSMUG1 WT (Homo sapiens, UniProt Q53HV7 1-270)
T1 sequence: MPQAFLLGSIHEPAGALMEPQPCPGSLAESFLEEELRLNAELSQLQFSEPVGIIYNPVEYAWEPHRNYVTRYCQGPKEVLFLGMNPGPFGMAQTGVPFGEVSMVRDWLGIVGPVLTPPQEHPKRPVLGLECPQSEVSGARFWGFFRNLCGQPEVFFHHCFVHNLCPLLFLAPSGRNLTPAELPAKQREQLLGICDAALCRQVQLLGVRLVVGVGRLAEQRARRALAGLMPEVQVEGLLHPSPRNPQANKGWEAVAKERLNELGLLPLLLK
Experiment: EMSA

B1: T:A (T141A) (dsDNA)
DNA 1: CATAAAGTGTAAAGCCTGG
DNA 2: CCAGGCTTTACACTTTATG
binding result: no binding
